This note sets out measurements from IntAct's records for PubMed 23976881.

B1: Heterogeneous nuclear ribonucleoprotein L (Homo sapiens), P14866-1 (parent)
chain: MSRRLLPRAEKRRRRLEQRQQPDEQRRRSGAMVKMAAAGGGGGGGRYYGGGSEGGRAPKRLKTDNAGDQHGGGGGGGGGAGAAGGGGGGENYDDPHKTPASPVVHIRGLIDGVVEADLVEALQEFGPISYVVVMPKKRQALVEFEDVLGACNAVNYAADNQIYIAGHPAFVNYSTSQKISRPGDSDDSRSVNSVLLFTILNPIYSITTDVLYTICNPCGPVQRIVIFRKNGVQAMVEFDSVQSAQRAKASLNGADIYSGCCTLKIEYAKPTRLNVFKNDQDTWDYTNPNLSGQGDPGSNPNKRQRQPPLLGDHPAEYGGPHGGYHSHYHDEGYGPPPPHYEGRRMGPPVGGHRRGPSRYGPQYGHPPPPPPPPEYGPHADSPVLMVYGLDQSKMNCDRVFNVFCLYGNVEKVKFMKSKPGAAMVEMADGYAVDRAITHLNNNFMFGQKLNVCVSKQPAIMPGQSYGLEDGSCSYKDFSESRNNRFSTPEQAAKNRIQHPSNVLHFFNAPLEVTEENFFEICDELGVKRPSSVKVFSGKSERSSSGLLEWESKSDALETLGFLNHYQMKNPNGPYPYTLKLCFSTAQHAS

The variants in the assay derive from B1. As to conditions: with roa2_human HNRNPA2B1, P22626.
roa2_human HNRNPA2B1, P22626, sequence (P22626 whole entry): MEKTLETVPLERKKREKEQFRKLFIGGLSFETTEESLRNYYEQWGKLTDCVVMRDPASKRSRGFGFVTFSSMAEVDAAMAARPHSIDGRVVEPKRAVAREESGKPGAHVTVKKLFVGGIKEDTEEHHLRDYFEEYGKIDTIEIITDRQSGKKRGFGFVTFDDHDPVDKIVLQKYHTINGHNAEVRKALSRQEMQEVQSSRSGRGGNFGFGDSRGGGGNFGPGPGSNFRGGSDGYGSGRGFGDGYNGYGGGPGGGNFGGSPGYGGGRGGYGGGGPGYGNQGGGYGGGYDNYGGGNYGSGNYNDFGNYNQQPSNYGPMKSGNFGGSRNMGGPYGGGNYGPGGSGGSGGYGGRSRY
As to Y359D, the “effect of a mutation on the interaction” value is recorded as “increasing interaction strength”.
